From publication PMC9481464

Target: GTP
Test: GTP pull-down, quantified blot
Settings: + Mg2+; co-expressed with HA-RagC S75N; read off a plot

response (relative to RagBlong Q127L (set to 1))	Substance
1	RagB^long (from UniProt Q5VZM2) Q127L
0.9	RagB^long (from UniProt Q5VZM2) Q127L; D96A
1.8	RagB^long (from UniProt Q5VZM2) Q127L; L94A
